We go through 1 substance from patent US6365126.

The target of the data set is H-Ras (UniProt P01112).
H-Ras, sequence (P01112 whole entry, looked up): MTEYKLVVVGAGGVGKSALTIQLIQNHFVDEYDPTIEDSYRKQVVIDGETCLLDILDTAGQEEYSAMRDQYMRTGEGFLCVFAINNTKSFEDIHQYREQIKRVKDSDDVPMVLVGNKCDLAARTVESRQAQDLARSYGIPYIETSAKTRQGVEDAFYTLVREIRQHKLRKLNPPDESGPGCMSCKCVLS

Regarding “human NF1 catalytic domain fusion protein”, the “GTPase activity of H-Ras (GAP assay)” value is “All three fusion proteins stimulated the GTPase activity of H-Ras”.
